Test results as given in IntAct's records for PubMed 27189942.

B1: Rabankyrin-5 (Homo sapiens), Q9P2R3 (parent)
chain: MAEEEVAKLEKHLMLLRQEYVKLQKKLAETEKRCALLAAQANKESSSESFISRLLAIVADLYEQEQYSDLKIKVGDRHISAHKFVLAARSDSWSLANLSSTKELDLSDANPEVTMTMLRWIYTDELEFREDDVFLTELMKLANRFQLQLLRERCEKGVMSLVNVRNCIRFYQTAEELNASTLMNYCAEIIASHWDDLRKEDFSSMSAQLLYKMIKSKTEYPLHKAIKVEREDVVFLYLIEMDSQLPGKLNEADHNGDLALDLALSRRLESIATTLVSHKADVDMVDKSGWSLLHKGIQRGDLFAATFLIKNGAFVNAATLGAQETPLHLVALYSSKKHSADVMSEMAQIAEALLQAGANPNMQDSKGRTPLHVSIMAGNEYVFSQLLQCKQLDLELKDHEGSTALWLAVQHITVSSDQSVNPFEDVPVVNGTSFDENSFAARLIQRGSHTDAPDTATGNCLLQRAAGAGNEAAALFLATNGAHVNHRNKWGETPLHTACRHGLANLTAELLQQGANPNLQTEEALPLPKEAASLTSLADSVHLQTPLHMAIAYNHPDVVSVILEQKANALHATNNLQIIPDFSLKDSRDQTVLGLALWTGMHTIAAQLLGSGAAINDTMSDGQTLLHMAIQRQDSKSALFLLEHQADINVRTQDGETALQLAIRNQLPLVVDAICTRGADMSVPDEKGNPPLWLALANNLEDIASTLVRHGCDATCWGPGPGGCLQTLLHRAIDENNEPTACFLIRSGCDVNSPRQPGANGEGEEEARDGQTPLHLAASWGLEETVQCLLEFGANVNAQDAEGRTPIHVAISSQHGVIIQLLVSHPDIHLNVRDRQGLTPFACAMTFKNNKSAEAILKRESGAAEQVDNKGRNFLHVAVQNSDIESVLFLISVHANVNSRVQDASKLTPLHLAVQAGSEIIVRNLLLAGAKVNELTKHRQTALHLAAQQDLPTICSVLLENGVDFAAVDENGNNALHLAVMHGRLNNIRVLLTECTVDAEAFNLRGQSPLHILGQYGKENAAAIFDLFLECMPGYPLDKPDADGSTVLLLAYMKGNANLCRAIVRSGARLGVNNNQGVNIFNYQVATKQLLFRLLDMLSKEPPWCDGSYCYECTARFGVTTRKHHCRHCGRLLCHKCSTKEIPIIKFDLNKPVRVCNICFDVLTLGGVS
partner: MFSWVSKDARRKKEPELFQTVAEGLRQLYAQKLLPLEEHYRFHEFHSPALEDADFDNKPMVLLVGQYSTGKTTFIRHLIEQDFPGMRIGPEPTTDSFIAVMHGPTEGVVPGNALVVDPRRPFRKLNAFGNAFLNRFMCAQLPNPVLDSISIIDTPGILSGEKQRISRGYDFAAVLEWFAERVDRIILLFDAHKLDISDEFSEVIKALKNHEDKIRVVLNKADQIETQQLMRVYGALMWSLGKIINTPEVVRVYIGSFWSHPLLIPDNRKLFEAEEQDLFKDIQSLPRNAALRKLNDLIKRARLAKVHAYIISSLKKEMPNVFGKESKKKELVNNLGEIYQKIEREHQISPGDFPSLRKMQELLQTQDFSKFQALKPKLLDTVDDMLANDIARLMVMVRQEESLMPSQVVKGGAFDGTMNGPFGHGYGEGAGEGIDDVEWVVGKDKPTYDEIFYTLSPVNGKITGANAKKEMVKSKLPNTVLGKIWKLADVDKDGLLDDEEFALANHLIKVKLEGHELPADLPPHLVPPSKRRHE
B2: MICAL-like protein 1 (Homo sapiens), Q8N3F8 (parent)
chain: MAGPRGALLAWCRRQCEGYRGVEIRDLSSSFRDGLAFCAILHRHRPDLLDFDSLSKDNVFENNRLAFEVAEKELGIPALLDPNDMVSMSVPDCLSIMTYVSQYYNHFCSPGQAGVSPPRKGLAPCSPPSVAPTPVEPEDVAQGEELSSGSLSEQGTGQTPSSTCAACQQHVHLVQRYLADGRLYHRHCFRCRRCSSTLLPGAYENGPEEGTFVCAEHCARLGPGTRSGTRPGPFSQPKQQHQQQLAEDAKDVPGGGPSSSAPAGAEADGPKASPEARPQIPTKPRVPGKLQELASPPAGRPTPAPRKASESTTPAPPTPRPRSSLQQENLVEQAGSSSLVNGRLHELPVPKPRGTPKPSEGTPAPRKDPPWITLVQAEPKKKPAPLPPSSSPGPPSQDSRQVENGGTEEVAQPSPTASLESKPYNPFEEEEEDKEEEAPAAPSLATSPALGHPESTPKSLHPWYGITPTSSPKTKKRPAPRAPSASPLALHASRLSHSEPPSATPSPALSVESLSSESASQTAGAELLEPPAVPKSSSEPAVHAPGTPGNPVSLSTNSSLASSGELVEPRVEQMPQASPGLAPRTRGSSGPQPAKPCSGATPTPLLLVGDRSPVPSPGSSSPQLQVKSSCKENPFNRKPSPAASPATKKATKGSKPVRPPAPGHGFPLIKRKVQADQYIPEEDIHGEMDTIERRLDALEHRGVLLEEKLRGGLNEGREDDMLVDWFKLIHEKHLLVRRESELIYVFKQQNLEQRQADVEYELRCLLNKPEKDWTEEDRAREKVLMQELVTLIEQRNAIINCLDEDRQREEEEDKMLEAMIKKKEFQREAEPEGKKKGKFKTMKMLKLLGNKRDAKSKSPRDKS
partner: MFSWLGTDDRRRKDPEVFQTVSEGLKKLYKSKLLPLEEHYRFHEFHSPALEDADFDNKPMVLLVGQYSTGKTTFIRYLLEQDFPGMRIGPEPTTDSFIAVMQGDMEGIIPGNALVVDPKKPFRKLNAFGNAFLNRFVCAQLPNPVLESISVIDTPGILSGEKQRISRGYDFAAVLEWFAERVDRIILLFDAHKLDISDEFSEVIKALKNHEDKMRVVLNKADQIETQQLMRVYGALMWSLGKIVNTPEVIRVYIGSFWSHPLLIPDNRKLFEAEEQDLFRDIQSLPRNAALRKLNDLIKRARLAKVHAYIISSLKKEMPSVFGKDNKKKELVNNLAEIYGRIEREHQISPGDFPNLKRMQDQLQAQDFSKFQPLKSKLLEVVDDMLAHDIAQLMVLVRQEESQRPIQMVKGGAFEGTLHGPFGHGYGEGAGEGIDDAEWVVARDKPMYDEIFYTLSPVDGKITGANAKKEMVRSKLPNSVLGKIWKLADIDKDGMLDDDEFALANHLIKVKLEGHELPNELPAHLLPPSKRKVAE
B3: Rabankyrin-5 (Homo sapiens), Q9P2R3 (parent)
chain: B1 chain
partner: B2 partner
B4: EH domain-containing protein 3 (Homo sapiens), Q9NZN3 (parent)
chain: B2 partner
partner: B1 chain
B5: MICAL-like protein 1 (Homo sapiens), Q8N3F8 (parent)
chain: B2 chain
partner: B1 partner

Variants of: B1
Settings: with ehd1_human EHD1, Q9H4M9

effect of a mutation on the interaction | Variant
disrupting interaction | S419P

Variants of: B2
Settings: with ehd3_human EHD3, Q9NZN3

effect of a mutation on the interaction | Variant
disrupting interaction | E428A;E429A;E430A;E431A;E432A;D433A

Variants of: B3
Settings: with ehd3_human EHD3, Q9NZN3

effect of a mutation on the interaction | Variant
causing an interaction | Q418K;S419P;V420Y
causing an interaction | Q418K
causing an interaction | V420A
causing an interaction | V420Y

Variants of: B4
Settings: with anfy1_human ANKFY1, Q9P2R3

effect of a mutation on the interaction | Variant
causing an interaction | MFSWLGTDDRRRKDPEVFQTVSEGLKKLYKSKLLPLEEHYRFHEFHSPALEDADFDNKPMVLLVGQYSTGKTTFIRYLLEQDFPGMRIGPEPTTDSFIAVMQGDMEGIIPGNALVVDPKKPFRKLNAFGNAFLNRFVCAQLPNPVLESISVIDTPGILSGEKQRISRGYDFAAVLEWFAERVDRIILLFDAHKLDISDEFSEVIKALKNHEDKMRVVLNKADQIETQQLMRVYGALMWSLGKIVNTPEVIRVYIGSFWSHPLLIPDNRKLFEAEEQDLFRDIQSLPRNAALRKLNDLIKRARLAKVHAYIISSLKKEMPSVFGKDNKKKELVNNLAEIYGRIEREHQISPGDFPNLKRMQDQLQAQDFSKFQPLKSKLLEVVDDMLAHDIAQLMVLVRQEESQRPIQMVKGGAFEGTLHGPFGHGYGEGAGEGIDDAEWVVARDKPMYDEIFYTLSPVDGKITGANAKKEMVRSKLPNSVLGKIWKLADIDKDGMLDDDEFALANHLIKVKLEGHELPAELPAHLLPPSKRKVAE [N519A]
causing an interaction | MFSWLGTDDRRRKDPEVFQTVSEGLKKLYKSKLLPLEEHYRFHEFHSPALEDADFDNKPMVLLVGQYSTGKTTFIRYLLEQDFPGMRIGPEPTTDSFIAVMQGDMEGIIPGNALVVDPKKPFRKLNAFGNAFLNRFVCAQLPNPVLESISVIDTPGILSGEKQRISRGYDFAAVLEWFAERVDRIILLFDAHKLDISDEFSEVIKALKNHEDKMRVVLNKADQIETQQLMRVYGALMWSLGKIVNTPEVIRVYIGSFWSHPLLIPDNRKLFEAEEQDLFRDIQSLPRNAALRKLNDLIKRARLAKVHAYIISSLKKEMPSVFGKDNKKKELVNNLAEIYGRIEREHQISPGDFPNLKRMQDQLQAQDFSKFQPLKSKLLEVVDDMLAHDIAQLMVLVRQEESQRPIQMVKGGAFEGTLHGPFGHGYGEGAGEGIDDAEWVVARDKPMYDEIFYTLSPVDGKITGANAKKEMVRSKLPNSVLGKIWKLADIDKDGMLDDDEFALANHLIKVKLEGHELPNDLPAHLLPPSKRKVAE [E520D]

Variants of: B4
Settings: with anfy1_human ANKFY1, Q9P2R3
Remark: another data set of the same source

effect of a mutation on the interaction | Variant
causing an interaction | MFSWLGTDDRRRKDPEVFQTVSEGLKKLYKSKLLPLEEHYRFHEFHSPALEDADFDNKPMVLLVGQYSTGKTTFIRYLLEQDFPGMRIGPEPTTDSFIAVMQGDMEGIIPGNALVVDPKKPFRKLNAFGNAFLNRFVCAQLPNPVLESISVIDTPGILSGEKQRISRGYDFAAVLEWFAERVDRIILLFDAHKLDISDEFSEVIKALKNHEDKMRVVLNKADQIETQQLMRVYGALMWSLGKIVNTPEVIRVYIGSFWSHPLLIPDNRKLFEAEEQDLFRDIQSLPRNAALRKLNDLIKRARLAKVHAYIISSLKKEMPSVFGKDNKKKELVNNLAEIYGRIEREHQISPGDFPNLKRMQDQLQAQDFSKFQPLKSKLLEVVDDMLAHDIAQLMVLVRQEESQRPIQMVKGGAFEGTLHGPFGHGYGEGAGEGIDDAEWVVARDKPMYDEIFYTLSPVDGKITGANAKKEMVRSKLPNSVLGKIWKLADIDKDGMLDDDEFALANHLIKVKLEGHELPADLPAHLLPPSKRKVAE [N519A;E520D]

Variants of: B5
Settings: with ehd1_human EHD1, Q9H4M9

effect of a mutation on the interaction | Variant
disrupting interaction | E428A;E429A;E430A;E431A;E432A;D433A
decreasing interaction | E429A;E430A;E431A;E432A;D433A
